Assay results reported in publication PMC4673316.

Target: ClpP1/P2 heptameric ring 3ClpP1 + 4ClpP2 (Synechococcus elongatus) (UniProt P54415)
Experiment: native MS; nano-ESI Q-ToF, 200 mM ammonium acetate with 2 mM TEA (weakly denaturing)

ClpP1/P2 heptameric ring 3ClpP1 + 4ClpP2 (from UniProt P54415 1-197; O34125 1-240) (complex)
stoichiometry N: 2
